Measured values as given in the supplement of paper PMC9876800.

Test system: peptide library, one residue held at a place counted from the S/T acceptor
Assay: relative phosphorylation of the sub-library (ratio to the mean residue at this position); higher = residue favoured
Conditions: human
How it was run: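 Spots on streptavidin membranes were phosphorimaged and quantified by densitometry to measure phosphorylation of biotinylated degenerate peptide sub-libraries by purified recombinant kinases, human or orthologue constructs. The reactions ran in 384-well plates for 90 min under kinase-specific conditions, with peptides at 50 μM and 50 μM ATP spiked with γ-32P-ATP. Relative sub-library phosphorylation is the ratio to the mean residue at that position.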

Chain of CAMK2A, construct: Full length (Q9UQM7 whole entry, looked up): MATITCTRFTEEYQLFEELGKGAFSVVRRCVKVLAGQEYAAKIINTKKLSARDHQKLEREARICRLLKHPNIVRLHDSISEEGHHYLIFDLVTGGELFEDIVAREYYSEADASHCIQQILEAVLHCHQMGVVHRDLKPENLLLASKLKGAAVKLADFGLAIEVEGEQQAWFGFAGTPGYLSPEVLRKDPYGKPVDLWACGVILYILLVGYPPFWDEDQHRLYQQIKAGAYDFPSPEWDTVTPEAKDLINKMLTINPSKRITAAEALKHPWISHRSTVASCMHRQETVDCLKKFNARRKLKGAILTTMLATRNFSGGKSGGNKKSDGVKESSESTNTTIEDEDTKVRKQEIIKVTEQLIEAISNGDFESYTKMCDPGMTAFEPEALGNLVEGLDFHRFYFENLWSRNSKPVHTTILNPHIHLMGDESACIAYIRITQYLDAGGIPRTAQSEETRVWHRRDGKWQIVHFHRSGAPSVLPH

CAMK2A, construct: Full length (from UniProt Q9UQM7)
relative phosphorylation
Conditions | at +1 | at +2 | at +3 | at +4 | at -1 | at -2 | at -3 | at -4 | at -5
A fixed | 0.609 | 0.742 | 0.885 | 0.931 | 0.81 | 1.37 | 0.689 | 1.08 | 0.921
D fixed | 0.816 | 5.44 | 2.48 | 1.96 | 1.65 | 0.692 | 0.352 | 0.607 | 0.452
E fixed | 1.32 | 2.31 | 2.59 | 1.81 | 1.16 | 0.765 | 0.464 | 0.985 | 0.461
F fixed | 2.06 | 0.382 | 0.664 | 0.797 | 0.567 | 0.62 | 0.53 | 0.867 | 1.36
G fixed | 0.59 | 0.713 | 1.11 | 1.11 | 0.789 | 1.02 | 0.591 | 0.941 | 0.758
H fixed | 0.848 | 0.976 | 1.06 | 1.1 | 1.05 | 0.992 | 0.978 | 1.08 | 1.05
I fixed | 1.09 | 0.334 | 0.431 | 0.511 | 0.374 | 0.31 | 0.369 | 0.656 | 0.866
K fixed | 0.719 | 0.694 | 0.803 | 0.792 | 1.36 | 1.21 | 2.13 | 1.42 | 0.793
L fixed | 1.09 | 0.331 | 0.642 | 0.513 | 0.629 | 0.4 | 0.378 | 0.733 | 1.79
M fixed | 1.42 | 0.387 | 0.515 | 0.568 | 0.753 | 1.07 | 0.517 | 0.96 | 1.06
N fixed | 0.955 | 1.02 | 1.06 | 0.977 | 1.65 | 1.09 | 0.706 | 0.689 | 0.618
P fixed | 0.594 | 0.73 | 1.01 | 1.55 | 1.88 | 0.659 | 1.13 | 1.43 | 1.25
Q fixed | 1.41 | 0.696 | 0.973 | 1 | 1.37 | 2.96 | 0.902 | 1.04 | 0.747
R fixed | 0.735 | 0.781 | 0.762 | 0.557 | 1.02 | 1.47 | 5.38 | 1.4 | 1.27
V fixed | 1.22 | 0.44 | 0.614 | 0.664 | 0.527 | 0.389 | 0.379 | 0.776 | 0.867
W fixed | 0.527 | 0.452 | 0.634 | 1.15 | 0.5 | 1.21 | 0.837 | 1.31 | 1.59
Y fixed | 1 | 0.574 | 0.774 | 1.01 | 0.905 | 0.765 | 0.665 | 1.02 | 1.15
pThr fixed | 1.89 | 1.82 | 2.45 | 4.37 | 0.489 | 0.486 | 0.496 | 0.738 | 0.605
pTyr fixed | 1.53 | 4.53 | 2.49 | 2.88 | 1.8 | 0.503 | 0.514 | 0.804 | 0.813

BCKDK, construct: Full length (from UniProt O14874)
relative phosphorylation
Conditions | at +1 | at +2 | at +3 | at +4 | at -1 | at -2 | at -3 | at -4 | at -5
A fixed | 0.707 | 0.962 | 0.785 | 0.937 | 0.696 | 0.951 | 0.894 | 0.988 | 1.02
D fixed | 0.393 | 1.11 | 2.51 | 0.922 | 1.32 | 0.571 | 0.616 | 0.717 | 0.856
E fixed | 0.404 | 0.981 | 1.16 | 0.957 | 0.351 | 0.544 | 0.654 | 0.821 | 0.72
F fixed | 0.915 | 0.909 | 1.11 | 1.13 | 0.742 | 1.19 | 1.26 | 1.14 | 1.18
G fixed | 0.489 | 1.36 | 1.11 | 0.99 | 1.3 | 1.72 | 1.09 | 1.18 | 1.14
H fixed | 0.698 | 1.31 | 0.929 | 0.973 | 1.69 | 1.33 | 1.17 | 1.14 | 1.26
I fixed | 1.59 | 0.502 | 0.71 | 0.645 | 0.565 | 0.913 | 0.854 | 0.871 | 0.794
K fixed | 0.483 | 0.704 | 0.538 | 0.577 | 0.425 | 0.901 | 0.8 | 0.886 | 1.02
L fixed | 2.58 | 0.628 | 1.03 | 0.656 | 0.607 | 0.855 | 0.877 | 0.964 | 0.858
M fixed | 2.1 | 0.966 | 0.889 | 0.781 | 0.577 | 1.05 | 1.01 | 1.1 | 0.962
N fixed | 0.513 | 1.16 | 0.754 | 0.761 | 4.15 | 0.917 | 0.932 | 0.786 | 0.944
P fixed | 0.404 | 0.61 | 0.831 | 1.08 | 0.432 | 0.866 | 0.976 | 1.05 | 0.819
Q fixed | 0.69 | 1.17 | 0.749 | 0.724 | 0.619 | 0.867 | 0.804 | 0.75 | 0.678
R fixed | 0.671 | 1.43 | 0.834 | 0.859 | 0.562 | 0.893 | 1.02 | 0.937 | 1.01
V fixed | 1.84 | 0.553 | 0.641 | 0.709 | 0.514 | 0.699 | 0.734 | 0.791 | 0.879
W fixed | 0.688 | 1.35 | 1.53 | 2.53 | 1.06 | 1.51 | 1.74 | 1.64 | 1.73
Y fixed | 1.84 | 1.28 | 0.896 | 1.76 | 1.39 | 1.23 | 1.57 | 1.24 | 1.13
pThr fixed | 0.535 | 0.616 | 0.681 | 0.682 | 0.541 | 0.847 | 0.904 | 0.931 | 0.896
pTyr fixed | 0.502 | 0.681 | 0.53 | 1.46 | 0.581 | 0.994 | 1.31 | 1.14 | 0.896
